Literature values as cited in patent publication US20230149374A1, “METHODS AND COMPOSITIONS FOR TREATING ATHEROSCLEROSIS” (Sanford Burnham Prebys Medical Discovery Institute, priority 2021, published 2023).

Test system: patient with TNAP deficiency
Details: administration for 8 months, very high blood TNAP activity; cited from earlier work

B1: recombinant TNAP: recombinant TNAP administered for 8 months in a patient with TNAP deficiency (protein, UniProt P05186 18-501, looked up)
Alkaline phosphatase, …: LVPEKEKDPKYWRDQAQETLKYALELQKLNTNVAKNVIMFLGDGMGVSTVTAARILKGQLHHNPGEETRLEMDKFPFVALSKTYNTNAQVPDSAGTATAYLCGVKANEGTVGVSAATERSRCNTTQGNEVTSILRWAKDAGKSVGIVTTTRVNHATPSAAYAHSADRDWYSDNEMPPEALSQGCKDIAYQLMHNIRDIDVIMGGGRKYMYPKNKTDVEYESDEKARGTRLDGLDLVDTWKSFKPRYKHSHFIWNRTELLTLDPHNVDYLLGLFEPGDMQYELNRNNVTDPSLSEMVVVAIQILRKNPKGFFLLVEGGRIDHGHHEGKAKQALHEAVEMDRAIGQAGSLTSSEDTLTVVTADHSHVFTFGGYTPRGNSIFGLAPMLSDTDKKPFTAILYGNGPGYKVVGGERENVSMVDYAHNNYQAQSAVPLRHETHGGEDVAVFSKGPMAHLLHGVHEQNYVPHVMAYAACIGANLGHCAPAS
For B1, the vascular calcium score is given as “did not increase”.
